In paper PMC10462845 (Neoplasia (New York, N.Y.), 2023):

T1: C-terminal BTB/POZ containing fragment of KCTD1 (BTB/POZ1) (UniProt Q719H9 1-257)
T1 sequence: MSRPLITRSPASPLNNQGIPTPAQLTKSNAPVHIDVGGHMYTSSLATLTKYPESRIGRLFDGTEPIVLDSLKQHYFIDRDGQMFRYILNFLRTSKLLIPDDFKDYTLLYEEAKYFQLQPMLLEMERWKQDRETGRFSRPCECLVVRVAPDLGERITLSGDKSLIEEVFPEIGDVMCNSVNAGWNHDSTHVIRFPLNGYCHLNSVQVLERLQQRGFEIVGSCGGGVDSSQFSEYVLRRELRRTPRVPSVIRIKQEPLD

B1: BTB/POZ domain of KCASH1 (KCTD11) (BTB/POZ11) (domain or fragment)
chain: GPVTLNVGGTLYSTTLETLTRFPDSMLGAMFRAGTPMPPNLNSQGGGHYFIDRDGKAFRHILNFLRLGRLDLPRGYGETALLRAEADFYQIRPLLDALRELEASQG
B2: KCASH2 (KCTD21), full length, recombinant (natural protein)
chain: MSDPITLNVGGKLYTTSLATLTSFPDSMLGAMFSGKMPTKRDSQGNCFIDRDGKVFRYILNFLRTSHLDLPEDFQEMGLLRREADFYQVQPLIEALQEKEVELSKAEKNAMLNITLNQRVQTVHFTVREAPQIYSLSSSSMEVFNANIFSTSCLFLKLLGSKLFYCSNGNLSSITSHLQDPNHLTLDWVANVEGLPEEEYTKQNLKRLWVVPANKQINSFQVFVEEVLKIALSDGFCIDSSHPHALDFMNNKIIRLIRYR

Experiments:
Assay in all cases: MST
[1] = target: T1, C-terminal BTB/POZ containing fragment …
[2] = target: C-terminal BTB/POZ containing fragment of KCTD1 (BTB/POZ1) (UniProt Q719H9)
[3] = target: BTB/POZ domain of KCTD15 (BTB/POZ15) (UniProt Q96SI1)
Sequence of BTB/POZ domain of KCTD15 (BTB/POZ15) (Q96SI1 whole entry, the tested form may be a part): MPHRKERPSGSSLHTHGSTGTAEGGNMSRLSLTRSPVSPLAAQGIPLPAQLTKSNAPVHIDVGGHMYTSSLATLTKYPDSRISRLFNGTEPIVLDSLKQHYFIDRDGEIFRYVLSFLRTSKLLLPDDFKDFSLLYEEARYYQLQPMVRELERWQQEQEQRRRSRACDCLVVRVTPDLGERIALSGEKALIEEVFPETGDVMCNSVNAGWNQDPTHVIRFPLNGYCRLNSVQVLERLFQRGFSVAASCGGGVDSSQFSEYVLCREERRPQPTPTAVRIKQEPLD

Row | Binder | Kd [1] | Kd [2] | Kd [3]
1 | B1 | 0.8 ± 0.1 µM |  | 
2 | B2 |  | 3.9 µM | 6.6 µM
